Measured values taken from patent US7737158B2, “Processes for regulating blood glucose in a mammal” (Washington University, priority 2005, dated 2010).
“Also recorded” adds a separate entry of the source.

How the values were obtained:
[1] = target: T1, mouse Nmnat (Mus musculus, UniProt Q9EPA7); test: Enzyme-coupled fluorometric assay, kinetic characterization of recombinant Nmnat; type: biochemical
T1 construct: Polyclonal rabbit antisera were produced against the purified full-length His-tagged Nampt and Nmnat recombinant proteins; made in house; host or cells: E. coli BL21(DE3)pLysS
Description: Enzymatic activities of recombinant Nampt and Nmnat proteins were measured by an enzyme-coupled fluorometric assay (see, e.g., FIG. 4B). In this enzyme-coupled reaction, NAD is converted to NADH by alcohol dehydrogenase, and the fluorescence of NADH is detected in a fluorometer. To establish this assay system, optimal reaction conditions for Nmnat were initially examined by varying ATP and Mg^2+ concentrations and pH of the reaction buffer. The resultant reaction buffer for Nmnat contained 50 mM HEPES [pH 7.4], 0.02% BSA, 12 mM MgCl2, 2 mM ATP, 1.5% ethanol, and 30 μg/ml alcohol dehydrogenase to convert NAD to NADH. To determine the kinetic parameters for Nmnat, 30 ng of purified His-tagged Nmnat and varying concentrations of NMN were added to 1 ml of the reaction buffer. The reactions were run at 37° C. and quenched at six time points by the addition of 250 μl of 0.5 M EDTA. The production of NADH was measured by excitation at 340 nm and emission at 460 nm in a fluorometer. For kinetic characterization of Nampt, 500 ng of His-tagged Nampt and varying concentrations of nicotinamide were reacted at 37° C. in 100 μl of a buffer containing 50 mM Tris-HCl [pH 7.5], 0.02% BSA, 12 mM MgCl2, 2.5 mM ATP, 10 μg/ml His-tagged Nmnat, 0.4 mM phosphoribosyl pyrophosphate (PRPP), 1.5% ethanol, and 30 μg/ml alcohol dehydrogenase. NADH production was measured continuously in a fluorometer.
By using this enzyme-coupled fluorometric assay, kinetic parameters of purified recombinant mouse Nampt and Nmnat for nicotinamide and NMN, respectively, were determined (see, e.g., Table 1). The Lineweaver-Burk plots for these two enzymes are shown, for example, in FIGS. 11A and 11B. […] The Km and Vmax of mouse Nmnat are consistent with previously reported values for human NMNAT-1 (Emanuelli et al., J. Biol. Chem. (2001) 276, 406-412).

[2] = target: mouse Nampt (Mus musculus, UniProt Q99KQ4); test: Enzyme-coupled fluorometric assay of immunoprecipitated Nampt-FLAG and recombinant Nampt; type: biochemical; parameters: expressed in transfected cells; host or cells: mouse NIH3T3 fibroblasts and mouse HIB-1B preadipocytes (differentiated), stably transfected with pCXN2-Nampt-FLAG; cell extracts or culture supernatant, anti-FLAG immunoprecipitates; details: for kcat: NMN synthesis, 55 min at 37° C., pH8.5, Nampt amount quantified by Western blotting
Description: For immunoprecipitation of intracellular Nampt, whole cell extracts were prepared with ice-cold immunoprecipitation (IP) buffer (phosphate buffer saline [pH 7.4], 0.5% NP-40, 1 mM EDTA,1 mM NaF, 10 μM Trichostatin A, 10 mM nicotinamide, 0.5 mM DTT, protease inhibitor cocktail (Roche)) and mixed with agarose beads conjugated with the mouse monoclonal M2 anti-FLAG antibody (F2426, Sigma) for 3-4 hours at 4° C. For immunoprecipitation of extracellular Nampt, HIB-1B culture supernatants were collected after incubating differentiated HIB-1B cells overnight with DMEM without fetal bovine serum but supplemented with 1 μg/ml insulin and 1 nM triodothyronine, filtered through a 0.22-μm PES membrane, concentrated with Amicon Ultra-15 columns (Millipore, MA), and mixed with anti-FLAG beads for 3-4 hours at 4° C. Immunoprecipitates were washed twice with the IP buffer and twice with PBS.
Immunoprecipitates on anti-FLAG beads were incubated in enzymatic reaction buffer (50 mM Tris-HCl (pH8.5), 100 mM NaCl, 0.25 mM Nicotinamide, 10 mM MgSO4, 1.5% Ethanol, 0.5 mM PRPP, 2.0 mM ATP) for 55 min at 37° C. After this reaction, mouse recombinant nicotinamide mononucleotide adenylyltransferase and yeast alcohol dehydrogenase (Sigma) were added at 10 μg/ml as the final concentration for each, and the mixture was incubated for 5 min at 37° C. Supernatants were then collected by spinning down anti-FLAG beads, and autofluorescence of NADH was measured in a Perkin Elmer LS 50B fluorometer (excitation: 340 nm; emission: 460 nm). Immunoprecipitates bound on anti-FLAG beads were extracted with Laemmli's sample buffer, boiled for 5 minutes, and analyzed by Western blotting with anti-Nampt antibodies. The amounts of Nampt used for enzymatic reactions were quantitated compared to the standards of mouse recombinant Nampt.
The immunoprecipitates from the HIB-1B culture supernatants were subjected to enzyme-coupled fluorometric assays (see Revollo et al., J. Biol. Chem., (2004)279, 50754-50763) to compare enzymatic activity of the intracellular and extracellular forms of Nampt. […] The Nampt enzymatic activity of the bacterially produced recombinant Nampt and the intracellular Nampt-FLAG® immunoprecipitated from HIB-1B and NIH3T3 cellular extracts were also measured and their kcat values calculated (see FIG. 16E). […] It is believed that a post-translational modification may be responsible for the altered enzymatic activity of extracellular Nampt produced by brown adipocytes. […] Despite the extensive mass spectrometric analysis of extracellular Nampt, the precise nature of the modification is currently unknown. Taken together, these findings provide strong evidence that Nampt functions as an NAD biosynthetic enzyme both intra- and extracellularly.

[3] = purified His-tagged recombinant mouse Nmnat, substrate NMN

B1: Nmnat: Bacterially produced, His-tagged recombinant mouse nicotinamide/nicotinic acid mononucleotide adenylyltransferase (protein, UniProt Q9EPA7 1-285, looked up)
Nicotinamide/nicotinic acid …: MDSSKKTEVVLLACGSFNPITNMHLRLFELAKDYMHATGKYSVIKGIISPVGDAYKKKGLIPAHHRIIMAELATKNSHWVEVDTWESLQKEWVETVKVLRYHQEKLATGSCSYPQSSPALEKPGRKRKWADQKQDSSPQKPQEPKPTGVPKVKLLCGADLLESFSVPNLWKMEDITQIVANFGLICITRAGSDAQKFIYESDVLWRHQSNIHLVNEWITNDISSTKIRRALRRGQSIRYLVPDLVQEYIEKHELYNTESEGRNAGVTLAPLQRNAAEAKHNHSTL
modifications: His tag
notes: Bacterially produced, His-tagged recombinant mouse nicotinamide/nicotinic acid mononucleotide adenylyltransferase
[1]; isolated reactions
  synthesis of NAD from NMN and ATP: catalyzed the synthesis of NAD
[1]; [3]
  Vmax: 31.4 µmol/min/mg
  kcat: 20.0 s⁻¹
[1]; purified His-tagged recombinant mouse Nmnat, substrate NMN, 37° C.
  Km: 20.1 µM

B2: extracellular Nampt-FLAG®: C-terminally FLAG-tagged mouse Nampt (SEQ ID NO:7) secreted from differentiated HIB-1B cells, immunoprecipitated from culture supernatants (protein)
chain: MNAAAEAEFNILLATDSYKVTHYKQYPPNTSKVYSYFECREKKTENSKVRKVKYEETVFYGLQYILNKYLKGKVVTKEKIQEAKEVYREHFQDDVFNERGWNYILEKYDGHLPIEVKAVPEGSVIPRGNVLFTVENTDPECYWLTNWIETILVQSWYPITVATNSREQKKILAKYLLETSGNLDGLEYKLHDFGYRGVSSQETAGIGASAHLVNFKGTDTVAGIALIKKYYGTKDPVPGYSVPAAEHSTITAWGKDHEKDAFEHIVTQFSSVPVSVVSDSYDIYNACEKIWGEDLRHLIVSRSTEAPLIIRPDSGNPLDTVLKVLDILGKKFPVTENSKGYKLLPPYLRVIQGDGVDINTLQEIVEGMKQKKWSIENVSFGSGGALLQKLTRDLLNCSFKCSYVVTNGLGVNVFKDPVADPNKRSKKGRLSLHRTPAGNFVTLEEGKGDLEEYGHDLLHTVFKNGKVTKSYSFDEVRKNAQLNIEQDVAPHGGDYKDDDDK
modifications: C-terminal FLAG tag; Nampt-FLAG (tm) protein
[2]
  kcat: 0.380 s⁻¹
[2]; immunoprecipitated from culture supernatants of differentiated HIB-1B cells
  Nampt enzymatic activity: Robust activity; also recorded: has Nampt enzymatic activity
[2]; versus bacterially produced recombinant Nampt
  kcat of extracellular Nampt-FLAG, fold higher than recombinant Nampt: ~11 fold
[2]; versus intracellular Nampt-FLAG from NIH3T3 cells
  kcat of extracellular Nampt-FLAG, fold higher than intracellular Nampt-FLAG from NIH3T3 cells: ~5 fold
[2]; versus intracellular Nampt-FLAG from differentiated HIB-1B cells
  kcat of extracellular Nampt-FLAG, fold higher than intracellular Nampt-FLAG from differentiated HIB-1B cells: ~2 fold

B3: intracellular Nampt-FLAG® from NIH3T3 cells: FLAG-tagged mouse Nampt immunoprecipitated from NIH3T3 cellular extracts (protein, UniProt Q99KQ4 1-491, looked up)
Nicotinamide …: MNAAAEAEFNILLATDSYKVTHYKQYPPNTSKVYSYFECREKKTENSKVRKVKYEETVFYGLQYILNKYLKGKVVTKEKIQEAKEVYREHFQDDVFNERGWNYILEKYDGHLPIEVKAVPEGSVIPRGNVLFTVENTDPECYWLTNWIETILVQSWYPITVATNSREQKKILAKYLLETSGNLDGLEYKLHDFGYRGVSSQETAGIGASAHLVNFKGTDTVAGIALIKKYYGTKDPVPGYSVPAAEHSTITAWGKDHEKDAFEHIVTQFSSVPVSVVSDSYDIYNACEKIWGEDLRHLIVSRSTEAPLIIRPDSGNPLDTVLKVLDILGKKFPVTENSKGYKLLPPYLRVIQGDGVDINTLQEIVEGMKQKKWSIENVSFGSGGALLQKLTRDLLNCSFKCSYVVTNGLGVNVFKDPVADPNKRSKKGRLSLHRTPAGNFVTLEEGKGDLEEYGHDLLHTVFKNGKVTKSYSFDEVRKNAQLNIEQDVAPH
modifications: FLAG tag
notes: FLAG-tagged mouse Nampt immunoprecipitated from NIH3T3 cellular extracts
[2]
  kcat: 0.082 s⁻¹

B4: intracellular Nampt-FLAG® from differentiated HIB-1B cells: FLAG-tagged mouse Nampt immunoprecipitated from differentiated HIB-1B cellular extracts (protein, UniProt Q99KQ4 1-491, looked up)
Nicotinamide …: B3 Nicotinamide …
modifications: FLAG tag
notes: FLAG-tagged mouse Nampt immunoprecipitated from differentiated HIB-1B cellular extracts
[2]
  kcat: 0.182 s⁻¹

B5: extracellular Nampt: Extracellular Nampt from HIB-1B culture supernatants (protein)
chain: B3 Nicotinamide …
[2]; extracellular Nampt from HIB-1B culture supernatants
  enzymatic activity after treatment with calf intestinal phosphatase (CIP): did not change
